Columns and labels:
[1] = system: rabbit erythrocytes; assay: hemagglutinating activity test, rabbit erythrocytes; assay type: cell-based; conditions: for hemagglutinating activity, titer (1.0 mg/ml): lectin 1.0 mg/ml
From the text: (§1) The sugar binding specificity of lectin also can be confirmed by using erythrocytes that can be specifically agglutinated by the lectin to investigate the sugar type that may inhibit the agglutination of the erythrocytes and the concentration thereof.
(§2) PTL and SRL were subjected to hagglutinating activity test for rabbit, equine, pig, sheep, human (A, B, O), and actinase E-treated rabbit erythrocytes.

[2] = system: pig erythrocytes; assay: hemagglutinating activity test, pig erythrocytes; assay type: cell-based; conditions: for hemagglutinating activity, titer (1.0 mg/ml): lectin 1.0 mg/ml
From the text: as §1, §2

[3] = system: sheep erythrocytes; assay: hemagglutinating activity test, sheep erythrocytes; assay type: cell-based; conditions: for hemagglutinating activity, titer (1.0 mg/ml): lectin 1.0 mg/ml
From the text: as §1, §2

[4] = system: human (A, B, O) erythrocytes; assay: hemagglutinating activity test, human (A, B, O) erythrocytes; assay type: cell-based; conditions: for hemagglutinating activity, titer (1.0 mg/ml): lectin 1.0 mg/ml
From the text: as §2

[5] = system: actinase E-treated rabbit erythrocytes; assay: hemagglutinating activity test, actinase E-treated rabbit erythrocytes; assay type: cell-based; conditions: for hemagglutinating activity, titer (1.0 mg/ml): lectin 1.0 mg/ml
From the text: as §1, §2

[6] = biological target: Blood serum albumin (bovine) (Bos taurus, UniProt P02769); assay: detection of glycoproteins by ELISA with biotin-labeled lectin; assay type: binding; conditions: (0) Blood serum albumin (bovine), No sugar chain; thyroglobulin value = 100%
Chain of Blood serum albumin (bovine) (P02769 25-607): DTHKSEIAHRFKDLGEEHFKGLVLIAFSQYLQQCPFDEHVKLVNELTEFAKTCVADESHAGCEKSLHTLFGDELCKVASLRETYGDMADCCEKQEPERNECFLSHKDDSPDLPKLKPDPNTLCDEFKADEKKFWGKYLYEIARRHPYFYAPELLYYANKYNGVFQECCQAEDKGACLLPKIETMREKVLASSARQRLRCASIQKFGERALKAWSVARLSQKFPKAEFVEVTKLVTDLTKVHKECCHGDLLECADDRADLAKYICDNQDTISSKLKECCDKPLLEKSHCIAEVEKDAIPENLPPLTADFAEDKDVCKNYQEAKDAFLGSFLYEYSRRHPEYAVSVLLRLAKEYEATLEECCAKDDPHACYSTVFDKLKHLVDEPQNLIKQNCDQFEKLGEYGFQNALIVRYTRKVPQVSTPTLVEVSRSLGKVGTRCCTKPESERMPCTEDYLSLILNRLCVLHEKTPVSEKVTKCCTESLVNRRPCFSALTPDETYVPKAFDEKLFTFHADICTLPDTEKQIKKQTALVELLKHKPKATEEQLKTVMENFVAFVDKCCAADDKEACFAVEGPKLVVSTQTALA
Method: (§3) PTL of Example 1, SRL of Example 2, AAL of Comparison Example 1, AOL of Comparison Example 2, and LCA of Comparison Example 3 that were biotin-labeled were used to the detection of glycoproteins by the enzyme-linked immunosorbent assay (ELISA).
(§4) The glycoprotein and albumin as protein not including a sugar chain as a control were dissolved in 0.1 M carbonic acid buffer solution (pH 9.5) at 1 mg/ml. Then, the resultant solution was added to a microtiter plate (Nunc 439454) and was incubated at 4 degrees C. overnight. Then, the resultant solution was cleaned by 0.05% Tween/PBS three times. Thereafter, 1% BSA/PBS was added to wells and the solution was incubated at 37 degrees C. for one hour. Then, after the solution was cleaned by 0.05% Tween/PBS three times, biotin labeled-lectin appropriately diluted by 1% BSA/0.05% Tween/PBS was added to the wells and the solution was incubated at 37 degrees C. for one hour. After the solution was cleaned by 0.05% Tween/PBS three times, HRP labeled streptavidin solution diluted by 1% BSA/0.05% Tween/PBS was added to wells and the solution was incubated at 37 degrees C. for 30 minutes. After the solution was cleaned by 0.05% Tween/PBS three times, TMB Peroxidase substrate system (KPL) was added and the resultant solution was incubated at a room temperature for 10 minutes while light was being blocked.
(§5) The reaction was stopped by 1 M phosphoric acid. Then, a microplate reader (MPR-A4i, TOSOH CORPORATION) was used to measure the absorbance at 450 nm. Based on this value, reaction value ([absorbance at 450 nm of a well for which glycoprotein was solid-phased to the plate and reacted]−[absorbance at 450 nm of a well for which glycoprotein was not solid-phased to the plate and reacted] was calculated. Next, for each lectin, the interaction strength (relative value) to each glycoprotein was calculated based on an assumption that the glycoprotein (thyroglobulin) value was 100%. The calculation result is shown in Table 9 and FIG. 19 to FIG. 23.

[7] = system: Immune-globulin G (human); assay: as above; assay type: binding; conditions: (3) Immune-globulin G (human), N-linked glycan having α1→6 L-fucose; thyroglobulin value = 100%
Method: as §3, §4, §5

[8] = system: Mucin (bovine); assay: as above; assay type: binding; conditions: (8) Mucin (bovine), O-linked glycan including L-fucose; thyroglobulin value = 100%
Method: as §3, §4, §5

[9] = biological target: Thyroglobulin (pig) (Sus scrofa, UniProt F1RRV3); assay: as above; assay type: binding; conditions: (1) Thyroglobulin (pig), N-linked glycan having α1→6 L-fucose; thyroglobulin value = 100%
Chain of Thyroglobulin (pig) (F1RRV3 20-2692): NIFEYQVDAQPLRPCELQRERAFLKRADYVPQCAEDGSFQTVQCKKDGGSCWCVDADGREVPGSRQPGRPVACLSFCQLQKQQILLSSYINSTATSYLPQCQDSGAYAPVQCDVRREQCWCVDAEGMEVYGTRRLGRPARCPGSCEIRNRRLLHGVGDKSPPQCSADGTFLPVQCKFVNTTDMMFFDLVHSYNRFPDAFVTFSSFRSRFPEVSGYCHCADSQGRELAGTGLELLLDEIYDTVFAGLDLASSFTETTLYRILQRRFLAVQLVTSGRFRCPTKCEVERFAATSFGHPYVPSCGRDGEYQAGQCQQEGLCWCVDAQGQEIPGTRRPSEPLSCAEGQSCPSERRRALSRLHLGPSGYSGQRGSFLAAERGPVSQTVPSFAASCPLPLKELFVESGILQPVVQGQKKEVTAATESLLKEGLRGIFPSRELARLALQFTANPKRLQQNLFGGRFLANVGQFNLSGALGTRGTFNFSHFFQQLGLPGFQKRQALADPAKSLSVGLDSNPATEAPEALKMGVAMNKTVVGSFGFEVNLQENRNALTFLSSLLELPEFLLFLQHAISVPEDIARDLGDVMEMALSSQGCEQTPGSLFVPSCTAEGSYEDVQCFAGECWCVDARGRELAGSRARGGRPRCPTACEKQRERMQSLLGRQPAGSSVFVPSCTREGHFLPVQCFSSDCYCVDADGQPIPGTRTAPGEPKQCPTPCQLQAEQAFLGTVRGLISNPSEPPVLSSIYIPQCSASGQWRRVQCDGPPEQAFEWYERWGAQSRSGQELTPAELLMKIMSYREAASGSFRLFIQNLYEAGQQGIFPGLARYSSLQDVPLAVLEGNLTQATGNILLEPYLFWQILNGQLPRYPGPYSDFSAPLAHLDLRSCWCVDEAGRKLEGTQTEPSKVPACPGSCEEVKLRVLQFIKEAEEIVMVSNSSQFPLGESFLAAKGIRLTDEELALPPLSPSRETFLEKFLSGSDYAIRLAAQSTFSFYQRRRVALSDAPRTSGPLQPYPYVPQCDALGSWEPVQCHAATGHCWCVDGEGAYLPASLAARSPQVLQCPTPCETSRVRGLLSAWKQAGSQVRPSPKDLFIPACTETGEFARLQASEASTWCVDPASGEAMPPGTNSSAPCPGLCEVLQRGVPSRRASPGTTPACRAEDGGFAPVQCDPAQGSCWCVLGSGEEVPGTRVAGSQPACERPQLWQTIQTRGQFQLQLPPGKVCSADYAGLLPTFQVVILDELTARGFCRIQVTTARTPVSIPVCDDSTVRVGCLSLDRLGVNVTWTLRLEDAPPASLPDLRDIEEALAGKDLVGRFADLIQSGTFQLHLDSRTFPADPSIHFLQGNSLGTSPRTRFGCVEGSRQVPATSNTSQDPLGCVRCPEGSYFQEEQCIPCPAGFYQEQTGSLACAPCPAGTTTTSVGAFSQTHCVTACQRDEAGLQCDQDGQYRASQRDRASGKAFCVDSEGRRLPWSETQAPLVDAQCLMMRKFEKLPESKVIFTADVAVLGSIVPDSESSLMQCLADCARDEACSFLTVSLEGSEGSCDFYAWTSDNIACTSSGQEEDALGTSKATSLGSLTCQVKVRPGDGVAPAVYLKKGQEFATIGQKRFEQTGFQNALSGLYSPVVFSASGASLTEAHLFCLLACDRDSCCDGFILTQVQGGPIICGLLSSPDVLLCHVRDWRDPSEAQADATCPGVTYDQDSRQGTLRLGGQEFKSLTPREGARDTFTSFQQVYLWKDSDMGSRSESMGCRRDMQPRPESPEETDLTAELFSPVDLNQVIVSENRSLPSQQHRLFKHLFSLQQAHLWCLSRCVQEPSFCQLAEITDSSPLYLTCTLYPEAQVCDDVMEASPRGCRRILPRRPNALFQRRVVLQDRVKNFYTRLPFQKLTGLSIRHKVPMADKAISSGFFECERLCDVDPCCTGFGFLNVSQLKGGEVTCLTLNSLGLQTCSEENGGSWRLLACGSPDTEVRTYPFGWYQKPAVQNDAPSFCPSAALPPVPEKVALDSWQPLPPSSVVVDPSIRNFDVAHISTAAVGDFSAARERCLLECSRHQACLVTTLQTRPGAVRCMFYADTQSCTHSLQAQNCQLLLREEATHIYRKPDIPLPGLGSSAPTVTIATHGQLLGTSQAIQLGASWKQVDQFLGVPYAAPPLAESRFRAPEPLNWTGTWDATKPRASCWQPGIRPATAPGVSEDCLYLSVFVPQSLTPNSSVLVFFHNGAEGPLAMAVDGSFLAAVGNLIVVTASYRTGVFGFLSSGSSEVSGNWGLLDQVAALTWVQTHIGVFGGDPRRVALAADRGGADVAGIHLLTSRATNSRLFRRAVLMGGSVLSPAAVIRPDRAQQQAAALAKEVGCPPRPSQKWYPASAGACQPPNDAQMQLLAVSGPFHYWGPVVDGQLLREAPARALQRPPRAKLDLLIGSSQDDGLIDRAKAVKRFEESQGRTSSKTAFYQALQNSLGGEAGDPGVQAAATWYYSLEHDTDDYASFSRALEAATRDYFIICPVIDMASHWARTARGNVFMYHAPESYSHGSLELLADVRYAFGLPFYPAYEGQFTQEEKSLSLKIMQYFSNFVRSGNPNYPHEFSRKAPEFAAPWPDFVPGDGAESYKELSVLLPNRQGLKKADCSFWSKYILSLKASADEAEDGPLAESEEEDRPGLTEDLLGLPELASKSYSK
Method: as §3, §4, §5

[10] = biological target: Transferrin (human) (Homo sapiens, UniProt P02787); assay: as above; assay type: binding; conditions: (4) Transferrin (human), N-linked glycan not including α1→6 L-fucose; thyroglobulin value = 100%
Chain of Transferrin (human) (P02787 20-698): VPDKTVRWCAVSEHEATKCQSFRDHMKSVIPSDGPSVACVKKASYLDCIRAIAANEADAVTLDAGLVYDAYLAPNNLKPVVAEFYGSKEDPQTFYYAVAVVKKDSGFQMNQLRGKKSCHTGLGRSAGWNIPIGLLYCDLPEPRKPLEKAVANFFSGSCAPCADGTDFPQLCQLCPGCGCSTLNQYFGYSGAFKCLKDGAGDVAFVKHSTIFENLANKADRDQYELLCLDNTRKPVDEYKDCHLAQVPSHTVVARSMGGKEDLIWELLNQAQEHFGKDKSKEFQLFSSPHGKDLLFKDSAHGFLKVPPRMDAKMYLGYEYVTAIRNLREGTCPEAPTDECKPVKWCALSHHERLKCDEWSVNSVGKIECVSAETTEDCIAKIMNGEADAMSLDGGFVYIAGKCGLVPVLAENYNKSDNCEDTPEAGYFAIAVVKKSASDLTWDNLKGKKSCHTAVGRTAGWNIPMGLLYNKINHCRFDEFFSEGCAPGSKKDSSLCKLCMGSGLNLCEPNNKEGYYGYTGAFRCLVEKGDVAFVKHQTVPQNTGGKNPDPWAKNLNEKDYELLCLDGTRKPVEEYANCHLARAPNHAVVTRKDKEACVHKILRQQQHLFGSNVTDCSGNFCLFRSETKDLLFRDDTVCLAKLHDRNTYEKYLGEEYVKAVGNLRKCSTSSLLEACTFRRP
Method: as §3, §4, §5

[11] = system: α1-acidic glycoprotein (human); assay: as above; assay type: binding; conditions: (5) α1-acidic glycoprotein (human), N-linked glycan having α1→3 L-fucose; thyroglobulin value = 100%
Method: as §3, §4, §5

[12] = system: equine erythrocytes; assay: hemagglutinating activity test, equine erythrocytes; assay type: cell-based
From the text: as §1, §2

| Molecule | Minimum hemagglutinating concentration [1] [µg/mL] | hemagglutinating activity, titer (1.0 mg/ml) [1] [titer] | Minimum hemagglutinating concentration [2] [µg/mL] | hemagglutinating activity, titer (1.0 mg/ml) [2] [titer] | Minimum hemagglutinating concentration [3] [µg/mL] | hemagglutinating activity, titer (1.0 mg/ml) [3] [titer] | Minimum hemagglutinating concentration ([4]; Human A erythrocytes) [µg/mL] | hemagglutinating activity, titer (1.0 mg/ml) ([4]; Human A erythrocytes) [titer] | Minimum hemagglutinating concentration ([4]; Human B erythrocytes) [µg/mL] | hemagglutinating activity, titer (1.0 mg/ml) ([4]; Human B erythrocytes) [titer] | Minimum hemagglutinating concentration ([4]; Human O erythrocytes) [µg/mL] | hemagglutinating activity, titer (1.0 mg/ml) ([4]; Human O erythrocytes) [titer] | Minimum hemagglutinating concentration [5] [µg/mL] | hemagglutinating activity, titer (1.0 mg/ml) [5] [titer] | interaction strength (relative value) by ELISA [6] | interaction strength (relative value) by ELISA [7] | interaction strength (relative value) by ELISA [8] | interaction strength (relative value) by ELISA [9] | interaction strength (relative value) by ELISA [10] | interaction strength (relative value) by ELISA [11] | also measured |
| --- | --- | --- | --- | --- | --- | --- | --- | --- | --- | --- | --- | --- | --- | --- | --- | --- | --- | --- | --- | --- | --- |
| Pholiota terrestris lectin [PTL, novel L-fucose α1→6 specific lectin purified from the mushroom Pholiota terrestris] | 5.21 | 64 | 20.8 | 16 | >333 | <1 | >333 | <1 | >333 | <1 | >333 | <1 | 0.13 | 2560 | X (Relative values of 10 or less) | ⊚ (Relative values of 120 to 80) | X (Relative values of 10 or less) | ⊚ (Relative values of 120 to 80) | X (Relative values of 10 or less) | X (Relative values of 10 or less) | – |
| Stropharia rugosoannulata lectin [SRL, novel L-fucose α1→6 specific lectin purified from the mushroom Stropharia rugosoannulata] | 5.21 | 64 | 10.4 | 32 | >333 | <1 | >333 | <1 | >333 | <1 | >333 | <1 | 0.651 | 512 | X (Relative values of 10 or less) | ◯ (Relative values of 80 to 50) | X (Relative values of 10 or less) | ⊚ (Relative values of 120 to 80) | X (Relative values of 10 or less) | X (Relative values of 10 or less) | Minimum hemagglutinating concentration [12]: 2.61 µg/mL; hemagglutinating activity, titer (1.0 mg/ml) ([12]; lectin 1.0 mg/ml): 128 titer |
| Aspergillus oryzae lectin [AOL, reference compound] | – | – | – | – | – | – | – | – | – | – | – | – | – | – | X (Relative values of 10 or less) | Δ (Relative values of 50 to 10) | ⊚ (Relative values of 120 to 80) | ⊚ (Relative values of 120 to 80) | X (Relative values of 10 or less) | Δ (Relative values of 50 to 10) | – |
| Lens culinaris agglutinin (protein) chain 1: TETTSFSITKFSPDQKNLIFQGDGYTTKGKLTLTKAVKSTVGRALYSTPIHIWDRDTGNVANFVTSFTFVIDAPSSYNVADEFTFFIAPVDTKPQTGGGYLGVFNSKEYDKTSQTVAVEFDTFYNAAWDPSNKERHIGIDVNSIKSVNTKSWNLQNGERANVVIAFNAATNVLTVTLTYP chain 2: VTSYTLNEVVPLKDVVPEWVRIGFSATTGAEFAAHEVHSWSFHSELGGTSSS | – | – | – | – | – | – | – | – | – | – | – | – | – | – | X (Relative values of 10 or less) | ◯ (Relative values of 80 to 50) | X (Relative values of 10 or less) | ⊚ (Relative values of 120 to 80) | X (Relative values of 10 or less) | X (Relative values of 10 or less) | – |
| Aleuria aurantia lectin (protein) PTEFLYTSKIAAISWAATGGRQQRVYFQDLNGKIREAQRGGDNPWTGGSSQNVIGEAKLFSPLAAVTWKSAQGIQIRVYCVNKDNILSEFVYDGSKWITGQLGSVGVKVGSNSKLAALQWGGSESAPPNIRVYYQKSNGSGSSIHEYVWSGKWTAGASFGSTVPGTGIGATAIGPGRLRIYYQATDNKIREHCWDSNSWYVGGFSASASAGVSIAAISWGSTPNIRVYWQKGREELYEAAYGGSWNTPGQIKDASRPTPSLPDTFIAANSSGNIDISVFFQASGVSLQQWQWISGKGWSIGAVVPTGTPAGW | – | – | – | – | – | – | – | – | – | – | – | – | – | – | X (Relative values of 10 or less) | Δ (Relative values of 50 to 10) | ⊚ (Relative values of 120 to 80) | ⊚ (Relative values of 120 to 80) | X (Relative values of 10 or less) | Δ (Relative values of 50 to 10) | – |

Reference: patent publication US8461305B2, “L-fucose α1→6 specific lectin” (J-Oil Mills, Inc., priority 2008, dated 2013)
